T1: biotinylated Bcr-Abl PH domain (Avi-tag) (UniProt P11274 704-893, biotin on the Avi-tag)
T1 construct: Bcr part of Bcr-Abl p210, Pleckstrin-homology domain, residues 704-893; Cloned in pHBT1; the limits are those stated for the PH domain construct; also called biotinylated PH; source: E. coli BL21(DE3), co-expressed with BirA and 50 uM biotin, purified; not shown: Avi-tag, N-terminal, kept
T1 sequence (looked up): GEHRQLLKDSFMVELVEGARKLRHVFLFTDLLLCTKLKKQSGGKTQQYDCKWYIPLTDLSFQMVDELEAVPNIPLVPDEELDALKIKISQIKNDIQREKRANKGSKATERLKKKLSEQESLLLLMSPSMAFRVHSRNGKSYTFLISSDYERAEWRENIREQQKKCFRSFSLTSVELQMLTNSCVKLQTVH

T2: biotinylated Bcr-Abl DH-PH tandem domain (Avi-tag) (UniProt P11274 487-893, biotin on the Avi-tag)
T2 construct: Bcr part of Bcr-Abl p210, DH-PH tandem domain, residues 487-893; Cloned in pHBT1, which for the monobodies is said to give an N-terminal His- and Avi-tag followed by a TEV site; also called biotinylated DH-PH domain; source: E. coli BL21(DE3), co-expressed with BirA and 50 uM biotin, purified; not shown: Avi-tag, N-terminal, kept
T2 sequence (looked up): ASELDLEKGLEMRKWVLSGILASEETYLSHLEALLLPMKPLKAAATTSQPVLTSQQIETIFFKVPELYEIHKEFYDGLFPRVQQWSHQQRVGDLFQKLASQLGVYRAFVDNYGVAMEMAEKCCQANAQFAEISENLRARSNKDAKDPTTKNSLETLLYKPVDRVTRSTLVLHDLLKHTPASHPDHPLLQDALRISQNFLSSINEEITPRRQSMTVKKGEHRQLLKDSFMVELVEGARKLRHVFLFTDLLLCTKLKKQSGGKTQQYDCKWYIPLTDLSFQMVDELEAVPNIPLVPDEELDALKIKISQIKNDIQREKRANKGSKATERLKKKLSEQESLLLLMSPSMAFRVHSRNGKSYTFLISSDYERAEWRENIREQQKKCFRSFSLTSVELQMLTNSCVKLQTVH

T3: Bcr-Abl DH domain (residues 487-702)
T3 construct: Bcr part of Bcr-Abl p210, Dbl-homology domain, residues 487-702; 15N-labelled for the NMR experiments; also called Bcr DH; source: E. coli Rosetta(DE3), purified (Ni-NTA, TEV cleavage, reverse Ni, SEC); not shown: His-tag, N-terminal, cleaved
T3 chain: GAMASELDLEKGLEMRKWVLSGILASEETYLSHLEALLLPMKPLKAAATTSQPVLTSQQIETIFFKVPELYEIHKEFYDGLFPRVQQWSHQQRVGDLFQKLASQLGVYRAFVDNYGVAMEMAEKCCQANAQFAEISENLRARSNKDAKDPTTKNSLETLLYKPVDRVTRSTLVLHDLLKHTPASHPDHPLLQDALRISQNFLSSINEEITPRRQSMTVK


Key:
[1] = target: T1, biotinylated Bcr-Abl PH domain (Avi-tag); assay: flow cytometry on cells; monobody displayed on yeast surface; biotinylated target 10 nM to 1 uM in TBS with 0.1% BSA, 30 min at RT; streptavidin-DyLight650; 1:1 binding model; apparent Kd; details: one partner purified
[2] = target: T2, biotinylated Bcr-Abl DH-PH tandem …; assay: as above; details: one partner purified
[3] = target: T3, Bcr-Abl DH domain (residues 487-702); assay: ITC; monobody (200 uM stock) titrated to the DH domain (20 uM) at 25 °C; 25 mM HEPES pH 7.5, 150 mM NaCl, 0.5 mM TCEP; 1:1 binding model; details: both partners purified

Binder	Kd [1] [nM]	Kd [2] [nM]	Kd [3] [nM]	stoichiometry N [3]
monobody Mb(Bcr-PH_2), displayed on yeast surface (designed binder, monobody on the fibronectin type III scaffold, side-and-loop library) VSSVPTKLEVVAATPTSLLISWDAPAVTVVFYVITYGETGGNSPVQEFTVPGSKSTATISGLKPGVDYTITVYAEYYGYTSSPISINYRT	46 ± 10	–	–	–
monobody Mb(Bcr-DH_3), purified (designed binder, monobody on the fibronectin type III scaffold, side-and-loop library; also called Mb(DH_3); source: E. coli BL21(DE3), purified; not shown: His-tag, N-terminal, cleaved; Avi-tag, N-terminal, cleaved) VSSVPTKLEVVAATPTSLLISWDAPAVTVDLYVITYGETGGNSPVQAFEVPGSKSTATISGLKPGVDYTITVYAGSETYRGYWSPISINYRT	–	–	2.1	0.78
monobody Mb(Bcr-DH_4), displayed on yeast surface (designed binder, monobody on the fibronectin type III scaffold, side-and-loop library) VSSVPTKLEVVAATPTSLLISWDAPAVTVDLYVITYGETGGNSPVQEFEVPGSKSTATISGLKPGVDYTITVYAGSYAYEYYWGPSPISINYRT	–	20 ± 7	–	–
monobody Mb(Bcr-DH_4), purified (designed binder, monobody on the fibronectin type III scaffold, side-and-loop library; also called Mb(DH_4); S10; source: E. coli BL21(DE3), purified; not shown: His-tag, N-terminal, cleaved; Avi-tag, N-terminal, cleaved) VSSVPTKLEVVAATPTSLLISWDAPAVTVDLYVITYGETGGNSPVQEFEVPGSKSTATISGLKPGVDYTITVYAGSYAYEYYWGPSPISINYRT	–	–	14.5 ± 8.6	0.94

Continued, values first:

Kd [1] [nM]	Kd [2] [nM]	Kd [3] [nM]	stoichiometry N [3]	Binder
–	18 ± 5	–	–	monobody Mb(Bcr-DH_3), displayed on yeast surface (designed binder, monobody on the fibronectin type III scaffold, side-and-loop library) VSSVPTKLEVVAATPTSLLISWDAPAVTVDLYVITYGETGGNSPVQAFEVPGSKSTATISGLKPGVDYTITVYAGSETYRGYWSPISINYRT
63 ± 12	–	–	–	monobody Mb(Bcr-PH_3), displayed on yeast surface (designed binder, monobody on the fibronectin type III scaffold, side-and-loop library) VSSVPTKLEVVAATPTSLLISWDAPAVTVVFYVITYGETGGNSPVQEFTVPGSKSTATISGLKPGVDYTITVYAEYYGYSGWQSPISINYRT
